Source: patent publication US20210206848A1 (Stanford University, published 2021)

B1: CD45-PD1(VHH) (bispecific antibody)
chain: DVQLVESGGGVVQPGGSLRLSCAASGSIASIHAMGWFRQAPGKEREFVAVITWSGGITYYADSVKGRFTISRDNSKNTVYLQMNSLRPEDTALYYCAGDKHQSSWYDYWGQGTLVTVSSGGGSLEVLFQGPGSGSDILLTQSPATLSLSPGERATLSCRASQNIGTSIQWYQQKPGQAPRLLIRSSSESISGISSRFSGSGSGTDFTLTISSLEPEDFAVYYCQQSNTWPFTFGQGTKLEIKGGSTRSSSSGGGGSGGGGQVQLVESGAEVKKPGASVKVSCKASGYTFTNYIIHWVKQEPGQGLEWIGYFNPYNHGTKYNEKFKGRATLTADKSISTAYMELSSLRSEDTAVYYCARSGPYAWFDTWGQGTTVTVSSAAAHHHHHHHH
notes: Anti-CD45 scFv fused to an anti-human PD-1 nanobody (VHH, from US20170137517A1); also called αCD45-PD1(VHH); 2nd generation anti-human RIPR-PD1
B2: CD45-PD1(Nivo)-Stabilized (bispecific antibody)
chain: QVQLVESGAEVKKPGASVKVSCKASGYTFTNYIIHWVKQEPGQGLEWIGYFNPYNHGTKYNEKFKGRATLTADKSISTAYMELSSLTSEDTAVYYCARSGPYAWFDTWGQGTTVTVSSGGGGSEIVLTQSPATLSLSPGERATLSCRASQSVSSYLAWYQQKPGQAPRLLIYDASNRATGIPARFSGSGSGTDFTLTISSLEPEDFAVYYCQQSSNWPRTFGQTKVEIKRRADAAAAGGGGSGGGGSGGGGSGGGGTGGGGSQVQLVESGGGVVQPGRSLRLDCKASGITFSNSGMHWVRQAPGKGLEWVAVIWYDGSKRYYADSVKGRFTISRDNSKNTLFLQMNSLTAEDTAVYYCATNDDYWGQGTLVTVSSGGGGSDILLTQSPATLSLSPGERATLSCRASQNIGTSIQWYQQKPGQAPRLLIRSSSESISGISSRFSGSGSGTDFTLTISSLEPEDFAVYYCQQSNTWPFTFGQGTKLEIKAAAHHHHHHHH
notes: also called αCD45-PD1(Nivo); αCD45-PD1 (Nivo)

Tests used:
[1] = biological target: T1, extracellular region of human CD45 (human, UniProt P08575 26-577); test: SPR
T1 construct: also called hCD45
T1 sequence: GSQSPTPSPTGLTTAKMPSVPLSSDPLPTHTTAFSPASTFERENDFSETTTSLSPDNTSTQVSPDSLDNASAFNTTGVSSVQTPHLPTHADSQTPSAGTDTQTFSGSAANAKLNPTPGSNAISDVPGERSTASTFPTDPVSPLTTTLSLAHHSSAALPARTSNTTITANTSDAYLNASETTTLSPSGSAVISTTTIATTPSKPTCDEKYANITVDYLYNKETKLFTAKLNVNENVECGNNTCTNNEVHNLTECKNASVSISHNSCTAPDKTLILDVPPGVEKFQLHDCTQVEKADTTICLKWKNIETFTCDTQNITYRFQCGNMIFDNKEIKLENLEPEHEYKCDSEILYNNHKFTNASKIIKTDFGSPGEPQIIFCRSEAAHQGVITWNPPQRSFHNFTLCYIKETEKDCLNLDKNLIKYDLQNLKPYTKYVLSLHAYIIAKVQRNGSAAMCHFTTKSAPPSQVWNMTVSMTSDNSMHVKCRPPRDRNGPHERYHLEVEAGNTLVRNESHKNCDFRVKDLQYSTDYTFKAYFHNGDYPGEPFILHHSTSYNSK

[2] = biological target: T2, extracellular region of human PD-1 (human); test: SPR
T2 construct: also called hPD-1

[3] = biological target: T2, extracellular region of human PD-1; test: SPR; target PD-1 extracellular region
[4] = biological target: T1, extracellular region of human CD45; test: SPR; target CD45 extracellular region

T2 sequence (chain, as listed by the source limits assumed): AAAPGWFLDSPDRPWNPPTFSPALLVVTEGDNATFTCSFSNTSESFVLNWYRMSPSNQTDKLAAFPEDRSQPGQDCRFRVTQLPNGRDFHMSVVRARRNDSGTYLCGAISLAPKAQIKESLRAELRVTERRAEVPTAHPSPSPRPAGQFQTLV

Row | Binder | Kd [1] [nM] | Kd [2] [nM] | Kd [3] [nM] | Kd [4] [nM]
1 | B1 | ~700 | ~5 |  | 
2 | B2 |  |  | ~6 | ~300
